T1: TNFR1 (Homo sapiens, UniProt P19438)
T1 chain: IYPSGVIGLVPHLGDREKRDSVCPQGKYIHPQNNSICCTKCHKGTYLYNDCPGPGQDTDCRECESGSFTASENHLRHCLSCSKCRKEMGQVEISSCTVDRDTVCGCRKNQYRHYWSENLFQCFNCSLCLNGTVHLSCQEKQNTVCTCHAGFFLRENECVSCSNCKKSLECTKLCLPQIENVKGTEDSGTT


Molecular target: T1, TNFR1
Assay: yeast display SC50

Row | Binder | apparent Kd (screen)
1 | K23W (designed binder) SMEEEVEKAAKEYEKKKKEAIEWHLEKLKAKDKEAAERFLKELEEAAKEYAKDEAKTMSEEEAKRRAKKYKEKVLLSELSEEEQKEIKEAEEKLVRTILKYVEEAAK | 956 pM
2 | K93V (designed binder) SMEEEVEKAAKEYEKKKKEAIEKHLEKLKAKDKEAAERFLKELEEAAKEYAKDEAKTMSEEEAKRRAKKYKEKVLLSELSEEEQKEIKEAEEVLVRTILKYVEEAAK | 1160 pM
3 | Q84I (designed binder) SMEEEVEKAAKEYEKKKKEAIEKHLEKLKAKDKEAAERFLKELEEAAKEYAKDEAKTMSEEEAKRRAKKYKEKVLLSELSEEEIKEIKEAEEKLVRTILKYVEEAAK | 2730 pM
4 | K33W (designed binder) SMEEEVEKAAKEYEKKKKEAIEKHLEKLKAKDWEAAERFLKELEEAAKEYAKDEAKTMSEEEAKRRAKKYKEKVLLSELSEEEQKEIKEAEEKLVRTILKYVEEAAK | 869 pM
5 | E92V (designed binder) SMEEEVEKAAKEYEKKKKEAIEKHLEKLKAKDKEAAERFLKELEEAAKEYAKDEAKTMSEEEAKRRAKKYKEKVLLSELSEEEQKEIKEAEVKLVRTILKYVEEAAK | 12500 pM
6 | T97I (designed binder) SMEEEVEKAAKEYEKKKKEAIEKHLEKLKAKDKEAAERFLKELEEAAKEYAKDEAKTMSEEEAKRRAKKYKEKVLLSELSEEEQKEIKEAEEKLVRIILKYVEEAAK | 2050 pM
7 | K85C (designed binder) SMEEEVEKAAKEYEKKKKEAIEKHLEKLKAKDKEAAERFLKELEEAAKEYAKDEAKTMSEEEAKRRAKKYKEKVLLSELSEEEQCEIKEAEEKLVRTILKYVEEAAK | 539 pM
8 | L79T (designed binder) SMEEEVEKAAKEYEKKKKEAIEKHLEKLKAKDKEAAERFLKELEEAAKEYAKDEAKTMSEEEAKRRAKKYKEKVLLSETSEEEQKEIKEAEEKLVRTILKYVEEAAK | 1860 pM
9 | K41Y (designed binder) SMEEEVEKAAKEYEKKKKEAIEKHLEKLKAKDKEAAERFLYELEEAAKEYAKDEAKTMSEEEAKRRAKKYKEKVLLSELSEEEQKEIKEAEEKLVRTILKYVEEAAK | 446 pM
10 | A55H (designed binder) SMEEEVEKAAKEYEKKKKEAIEKHLEKLKAKDKEAAERFLKELEEAAKEYAKDEHKTMSEEEAKRRAKKYKEKVLLSELSEEEQKEIKEAEEKLVRTILKYVEEAAK | 12500 pM
11 | D53E (designed binder) SMEEEVEKAAKEYEKKKKEAIEKHLEKLKAKDKEAAERFLKELEEAAKEYAKEEAKTMSEEEAKRRAKKYKEKVLLSELSEEEQKEIKEAEEKLVRTILKYVEEAAK | 718 pM
12 | I87H (designed binder) SMEEEVEKAAKEYEKKKKEAIEKHLEKLKAKDKEAAERFLKELEEAAKEYAKDEAKTMSEEEAKRRAKKYKEKVLLSELSEEEQKEHKEAEEKLVRTILKYVEEAAK | 2250 pM
13 | L25Q (designed binder) SMEEEVEKAAKEYEKKKKEAIEKHQEKLKAKDKEAAERFLKELEEAAKEYAKDEAKTMSEEEAKRRAKKYKEKVLLSELSEEEQKEIKEAEEKLVRTILKYVEEAAK | 1540 pM
14 | K64V (designed binder) SMEEEVEKAAKEYEKKKKEAIEKHLEKLKAKDKEAAERFLKELEEAAKEYAKDEAKTMSEEEAVRRAKKYKEKVLLSELSEEEQKEIKEAEEKLVRTILKYVEEAAK | 653 pM
15 | L94Y (designed binder) SMEEEVEKAAKEYEKKKKEAIEKHLEKLKAKDKEAAERFLKELEEAAKEYAKDEAKTMSEEEAKRRAKKYKEKVLLSELSEEEQKEIKEAEEKYVRTILKYVEEAAK | 446 pM
16 | K27Y (designed binder) SMEEEVEKAAKEYEKKKKEAIEKHLEYLKAKDKEAAERFLKELEEAAKEYAKDEAKTMSEEEAKRRAKKYKEKVLLSELSEEEQKEIKEAEEKLVRTILKYVEEAAK | 593 pM
17 | S59P (designed binder) SMEEEVEKAAKEYEKKKKEAIEKHLEKLKAKDKEAAERFLKELEEAAKEYAKDEAKTMPEEEAKRRAKKYKEKVLLSELSEEEQKEIKEAEEKLVRTILKYVEEAAK | 446 pM

Row | Binder | apparent Kd (screen)
18 | E91N (designed binder) SMEEEVEKAAKEYEKKKKEAIEKHLEKLKAKDKEAAERFLKELEEAAKEYAKDEAKTMSEEEAKRRAKKYKEKVLLSELSEEEQKEIKEANEKLVRTILKYVEEAAK | 653 pM
19 | E78Y (designed binder) SMEEEVEKAAKEYEKKKKEAIEKHLEKLKAKDKEAAERFLKELEEAAKEYAKDEAKTMSEEEAKRRAKKYKEKVLLSYLSEEEQKEIKEAEEKLVRTILKYVEEAAK | 446 pM
20 | F39R (designed binder) SMEEEVEKAAKEYEKKKKEAIEKHLEKLKAKDKEAAERRLKELEEAAKEYAKDEAKTMSEEEAKRRAKKYKEKVLLSELSEEEQKEIKEAEEKLVRTILKYVEEAAK | 5840 pM
21 | K71V (designed binder) SMEEEVEKAAKEYEKKKKEAIEKHLEKLKAKDKEAAERFLKELEEAAKEYAKDEAKTMSEEEAKRRAKKYVEKVLLSELSEEEQKEIKEAEEKLVRTILKYVEEAAK | 446 pM
22 | E83D (designed binder) SMEEEVEKAAKEYEKKKKEAIEKHLEKLKAKDKEAAERFLKELEEAAKEYAKDEAKTMSEEEAKRRAKKYKEKVLLSELSEEDQKEIKEAEEKLVRTILKYVEEAAK | 1160 pM
23 | E45K (designed binder) SMEEEVEKAAKEYEKKKKEAIEKHLEKLKAKDKEAAERFLKELEKAAKEYAKDEAKTMSEEEAKRRAKKYKEKVLLSELSEEEQKEIKEAEEKLVRTILKYVEEAAK | 12500 pM
24 | L40W (designed binder) SMEEEVEKAAKEYEKKKKEAIEKHLEKLKAKDKEAAERFWKELEEAAKEYAKDEAKTMSEEEAKRRAKKYKEKVLLSELSEEEQKEIKEAEEKLVRTILKYVEEAAK | 490 pM
25 | T57H (designed binder) SMEEEVEKAAKEYEKKKKEAIEKHLEKLKAKDKEAAERFLKELEEAAKEYAKDEAKHMSEEEAKRRAKKYKEKVLLSELSEEEQKEIKEAEEKLVRTILKYVEEAAK | 277 pM
26 | R96L (designed binder) SMEEEVEKAAKEYEKKKKEAIEKHLEKLKAKDKEAAERFLKELEEAAKEYAKDEAKTMSEEEAKRRAKKYKEKVLLSELSEEEQKEIKEAEEKLVLTILKYVEEAAK | 718 pM
27 | E104F (designed binder) SMEEEVEKAAKEYEKKKKEAIEKHLEKLKAKDKEAAERFLKELEEAAKEYAKDEAKTMSEEEAKRRAKKYKEKVLLSELSEEEQKEIKEAEEKLVRTILKYVEFAAK | 593 pM
28 | A55R (designed binder) SMEEEVEKAAKEYEKKKKEAIEKHLEKLKAKDKEAAERFLKELEEAAKEYAKDERKTMSEEEAKRRAKKYKEKVLLSELSEEEQKEIKEAEEKLVRTILKYVEEAAK | 1050 pM
29 | K56I (designed binder) SMEEEVEKAAKEYEKKKKEAIEKHLEKLKAKDKEAAERFLKELEEAAKEYAKDEAITMSEEEAKRRAKKYKEKVLLSELSEEEQKEIKEAEEKLVRTILKYVEEAAK | 2730 pM
30 | A20Y (designed binder) SMEEEVEKAAKEYEKKKKEYIEKHLEKLKAKDKEAAERFLKELEEAAKEYAKDEAKTMSEEEAKRRAKKYKEKVLLSELSEEEQKEIKEAEEKLVRTILKYVEEAAK | 446 pM
31 | V6R (designed binder) SMEEEREKAAKEYEKKKKEAIEKHLEKLKAKDKEAAERFLKELEEAAKEYAKDEAKTMSEEEAKRRAKKYKEKVLLSELSEEEQKEIKEAEEKLVRTILKYVEEAAK | 653 pM
32 | E19A (designed binder) SMEEEVEKAAKEYEKKKKAAIEKHLEKLKAKDKEAAERFLKELEEAAKEYAKDEAKTMSEEEAKRRAKKYKEKVLLSELSEEEQKEIKEAEEKLVRTILKYVEEAAK | 869 pM
33 | E37W (designed binder) SMEEEVEKAAKEYEKKKKEAIEKHLEKLKAKDKEAAWRFLKELEEAAKEYAKDEAKTMSEEEAKRRAKKYKEKVLLSELSEEEQKEIKEAEEKLVRTILKYVEEAAK | 490 pM
